This note sets out measurements from patent US20230192834A1.

Substitutions are numbered along the chain they refer to.

One may read the Kd as a measure of binding affinity in units of concentration.

First the molecules themselves.
T1: TGFβ2 (R&D Systems)
T1 sequence (P61812 303-414, species assumed, looked up): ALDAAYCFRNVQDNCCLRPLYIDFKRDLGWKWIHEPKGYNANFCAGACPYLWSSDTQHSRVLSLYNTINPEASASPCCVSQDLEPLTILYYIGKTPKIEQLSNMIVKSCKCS

T2: TGFβ3 (R&D Systems)
T2 sequence (P10600 301-412, species assumed, looked up): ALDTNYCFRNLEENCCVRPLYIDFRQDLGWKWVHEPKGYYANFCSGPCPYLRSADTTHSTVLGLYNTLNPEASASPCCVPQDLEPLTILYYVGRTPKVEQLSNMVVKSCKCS

B1: Felinized anti-TGFβ1,2,3 antibody VH3.8 - VL7 (antibody, V domains shown)
VH: QVQLVQSGAEVKKPGSSVKVSCKASGYTFSSNVISWVRQAPGKGLQWVAGVIPIVDIANYAQRFKGRFTISIDNSKNTLYLQMNSLKTEDTATYYCASTLGLVLDAMDYWGQGTLVTVSS
VL: DIVLTQPPSLSVNLGQTARITCRASQSLGSSYLAWYQQKPGQAPKLVTYGASSRAPGIPDRFSGTNSGITATLTISGARAEDEADYYCQQYADSPITFGQGTKLEIKR
B2: Caninized anti-TGFβ1,2,3 antibody VH3.1 - VL3 (antibody, V domains shown)
VH: DVQLVESGGDLVKPGGSLRLTCVASGYTFSSNVMHWVRQAPGKGLQWVAYVIPIVDIAYYADSVKGRFTISIDNSKNTLYLQMNSLKTEDTATYYCARTLGLVLDAMDYWGQGTLVTVSS
VL: EIVMTQSPASLSLSQEEKVTITCRASQSLGSSYLAWYQQKPGQAPKLLIYGASSRAPGVPSRFSGSGSGTDFSFTISSLEPEDVAVYYCQQYADSPITFGQGTKLEIKR
B3: Felinized anti-TGFβ1,2,3 antibody VH3.2 - VL8 (antibody, V domains shown)
VH: B2 VH
VL: DIVMTQSPGSLAGSPGQQVTMNCRASQSLGSSYLAWYQQKPGQHPELLIYGASSRAPGVPDRFSGSGSGTDFTLTISNLQAEDVANYYCQQYADSPITFGQGTKLEIKR
B4: Felinized anti-TGFβ1,2,3 antibody VH3.2 - VL7 (antibody, V domains shown)
VH: B2 VH
VL: B1 VL
B5: Felinized anti-TGFβ1,2,3 antibody VH3.2 - VL3 (antibody, V domains shown)
VH: B2 VH
VL: EIQMTQSPSSLSASPGDRVTITCRASQSLGSSYLAWYQQKPGKVPKLLIYGASSRAPGVPSRFSGSGSGTDFTLTISSLEPEDAATYYCQQYADSPITFGQGTKLEIKR
B6: Felinized anti-TGFβ1,2,3 antibody VH2.1 - VL3 (antibody, V domains shown)
VH: QVLLVQSGADVRKPGASVKIFCKASGYTFTSNVISWVRQTPAQGFEWMGGVIPIVDIANYAQRFKGRLVLTADTSTNTAYMELRSLKSADTAVYYCASTLGLVLDAMDYWGQGSLVTVSS
VL: B5 VL
B7: Felinized anti-TGFβ1,2,3 antibody VH2.2 - VL7 (antibody, V domains shown)
VH: B6 VH with T30S, I34M, S35H, G50S, N59T, Q62R, K65Q, S98R
VL: B1 VL
B8: Felinized anti-TGFβ1,2,3 antibody VH2.1 - VL8 (antibody, V domains shown)
VH: B6 VH
VL: B3 VL
B9: Felinized anti-TGFβ1,2,3 antibody VH6.1 - VL3 (antibody, V domains shown)
VH: QVLLVQSGAEVRTPGASVKIFCKASGYGFTSNVISWVRQSPAQGLEWMGGVIPIVDIANYAQRFKGRLTLTADTSTDTAYMELSSLRSADTAMYYCASTLGLVLDAMDYWGQGTLVTVSS
VL: B5 VL
B10: Caninized anti-TGFβ1,2,3 antibody VH5.6 - VL2 (antibody, V domains shown)
VH: EVQLVESGGDLVKPGGSLRLSCVASGFTFSSNVISWVRQAPGQGLEWMGGVIPIVDIANYAQRFKGRVTITADESTSTTYMELSSLRSEDTAVYYCASTLGLVLDAMDYWGQGTLVTVSS
VL: ETVLTQSPGTLSLSPGERATLSCRASQSLGSSYLAWYQQKPGQAPRLLIYGASSRAPGVPARFSGSGSGTDFTLTISSLEPEDFAVYYCQQYADSPITFGQGTKLEIKR
B11: human: feline GC1008 chimera felchimGC1008 (antibody, V domains shown)
VH: QVQLVQSGAEVKKPGSSVKVSCTASGYTPSSNVISNVRQAPGQGLENNGGVIPIVDIANYAQRPKGRVTITADESTSTTYHELSSLRSEDTAVYYCASTLGLVLDAMDYHGQGTLVTVSS
VL: B10 VL with V59I, A61D, S78R, K104R
B12: Felinized anti-TGFβ1,2,3 antibody VH3.2 - VL1 (antibody, V domains shown)
VH: B2 VH
VL: B10 VL with V59I, A61D, S78R

One assay deals with T1, TGFβ2 (R&D Systems). Briefly: SPR (Biacore T200), TGFβ amine-coupled to chip, 1:1 fit.
Turning to B1, the equilibrium dissociation constant (Kd) is 1.94 nM. That is a single-digit nanomolar value.

Consider B2, for which the Kd came to 3.91 nM.

B3 showed a Kd of 2.13 nM.

For the molecule B4, the dissociation constant (Kd) came to 0.589 nM. This Kd is about 3.6-fold lower than that of the molecule before.

In turn, B5 gave a Kd of 0.751 nM.

For B6, the Kd was 1.91 nM. This Kd is about 2.5-fold higher than that of the molecule before.

In turn, B7 returned a Kd of 2.16 nM.

B8 showed a Kd of 3.41 nM. Compared with the last molecule, the Kd is about 1.6-fold higher.

Regarding B9, the dissociation constant Kd turned out to be 2.99 nM.

For the molecule B10, the dissociation constant (Kd) was 2.6 nM. The Kd values of the last two molecules are within 1.5-fold of each other.

Consider B11, for which the Kd is 1.88 nM.

For the molecule B12, the Kd is 1.84 nM. The Kd values of the last two molecules are within 1.5-fold of each other.

The next assay addresses T2, TGFβ3 (R&D Systems). The description is as above.
For B1, the equilibrium dissociation constant (Kd) came to 0.635 nM.

As for B2, the dissociation constant (Kd) was determined as 0.981 nM.

Turning to B3, the dissociation constant Kd turned out to be 0.0466 nM.

For B4, the equilibrium dissociation constant (Kd) is 0.434 nM.

For the molecule B5, the Kd came out at 0.144 nM.

Turning to B6, the Kd was 2.6 nM.

Molecule B7 showed a dissociation constant (Kd) of 3.52 nM.

On to B8, for which the Kd was 1.06 nM.

On to B9, for which the Kd worked out at 3.57 nM.

Turning to B10, the Kd is 1.67 nM.

Consider B11, for which the Kd was 2.35 nM.

In turn, B12 returned a Kd of 0.0051 nM.

The target of the next assay is TGFβ1 (R&D Systems). The description is as above.
Chain of TGFβ1 (R&D Systems) (P01137 279-390): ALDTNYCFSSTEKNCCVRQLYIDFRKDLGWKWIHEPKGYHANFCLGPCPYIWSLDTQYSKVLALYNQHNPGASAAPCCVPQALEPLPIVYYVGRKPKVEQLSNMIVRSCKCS
For B1, the dissociation constant (Kd) turned out to be 3.07 nM.

B2 yielded an equilibrium dissociation constant (Kd) of 7.52 nM.

For B3, the Kd worked out at 0.971 nM. This Kd lies about 7.7-fold lower than the previous one.

Turning to B4, the dissociation constant (Kd) came to 0.857 nM.

As to B5, the Kd is 0.66 nM.

B6 came in with a Kd of 2.89 nM.

Molecule B7 displayed a Kd of 4.95 nM.

B8 registered a Kd of 3.31 nM.

In turn, B9 yielded a Kd of 3.54 nM.

B10 came in with an equilibrium dissociation constant (Kd) of 3.68 nM.

For B11, the Kd was determined as 2.58 nM.

B12 returned an equilibrium dissociation constant (Kd) of 0.333 nM.

Another assay deals with T1, TGFβ2 (R&D Systems). As to the kind of experiment: cell-based or functional assay.
As for B1, the TGFb2 IC50 (SMAD3 phosphorylation in CMVICs, AlphaLISA) stood at 2.67 µg/mL.

Regarding B2, the TGFb2 IC50 (SMAD3 phosphorylation in CMVICs, AlphaLISA) was 0.954 µg/mL.

In turn, B3 displayed a TGFb2 IC50 (SMAD3 phosphorylation in CMVICs, AlphaLISA) of 0.037 µg/mL.

The molecule B4 yielded a TGFb2 IC50 (SMAD3 phosphorylation in CMVICs, AlphaLISA) of 0.048 µg/mL.

In turn, B5 had a TGFb2 IC50 (SMAD3 phosphorylation in CMVICs, AlphaLISA) of 0.14 µg/mL.

As for B6, the TGFb2 IC50 (SMAD3 phosphorylation in CMVICs, AlphaLISA) was determined as 0.277 µg/mL.

With B7, the TGFb2 IC50 (SMAD3 phosphorylation in CMVICs, AlphaLISA) is 20.6 µg/mL.

The molecule B8 showed a TGFb2 IC50 (SMAD3 phosphorylation in CMVICs, AlphaLISA) of 0.031 µg/mL.

B9: the TGFb2 IC50 (SMAD3 phosphorylation in CMVICs, AlphaLISA) is 0.223 µg/mL.

Molecule B10 yielded a TGFb2 IC50 (SMAD3 phosphorylation in CMVICs, AlphaLISA) of 0.691 µg/mL.

B11 showed a TGFb2 IC50 (SMAD3 phosphorylation in CMVICs, AlphaLISA) of 0.167 µg/mL.

As for B12, the TGFb2 IC50 (SMAD3 phosphorylation in CMVICs, AlphaLISA) was 0.19 µg/mL.

A further assay concerns the target T2, TGFβ3 (R&D Systems). Briefly: cell-based or functional assay.
Molecule B1 gave a TGFb3 IC50 (SMAD3 phosphorylation in CMVICs, AlphaLISA) of 0.204 µg/mL.

Molecule B2 gave a TGFb3 IC50 (SMAD3 phosphorylation in CMVICs, AlphaLISA) of 0.034 µg/mL.

For B3, the TGFb3 IC50 (SMAD3 phosphorylation in CMVICs, AlphaLISA) stood at 0.008 µg/mL.

For B4, the TGFb3 IC50 (SMAD3 phosphorylation in CMVICs, AlphaLISA) stood at 0.018 µg/mL.

For B5, the TGFb3 IC50 (SMAD3 phosphorylation in CMVICs, AlphaLISA) was determined as 0.023 µg/mL.

The molecule B6 showed a TGFb3 IC50 (SMAD3 phosphorylation in CMVICs, AlphaLISA) of 0.132 µg/mL.

B7: the TGFb3 IC50 (SMAD3 phosphorylation in CMVICs, AlphaLISA) came out at 2.2 µg/mL.

The molecule B8 displayed a TGFb3 IC50 (SMAD3 phosphorylation in CMVICs, AlphaLISA) of 0.124 µg/mL.

For B9, the TGFb3 IC50 (SMAD3 phosphorylation in CMVICs, AlphaLISA) turned out to be 0.014 µg/mL.

In turn, B10 displayed a TGFb3 IC50 (SMAD3 phosphorylation in CMVICs, AlphaLISA) of 0.056 µg/mL.

For the molecule B11, the TGFb3 IC50 (SMAD3 phosphorylation in CMVICs, AlphaLISA) is 0.053 µg/mL.

For B12, the TGFb3 IC50 (SMAD3 phosphorylation in CMVICs, AlphaLISA) is 0.053 µg/mL.

Another assay has as its target TGFβ1 (R&D Systems). Briefly: cell-based or functional assay.
With B1, the TGFb1 IC50 (SMAD3 phosphorylation in CMVICs, AlphaLISA) stood at 1.36 µg/mL.

In turn, B2 registered a TGFb1 IC50 (SMAD3 phosphorylation in CMVICs, AlphaLISA) of 0.134 µg/mL.

On to B3, for which the TGFb1 IC50 (SMAD3 phosphorylation in CMVICs, AlphaLISA) came to 0.072 µg/mL.

Consider B4, for which the TGFb1 IC50 (SMAD3 phosphorylation in CMVICs, AlphaLISA) worked out at 0.139 µg/mL.

In turn, B5 gave a TGFb1 IC50 (SMAD3 phosphorylation in CMVICs, AlphaLISA) of 0.132 µg/mL.

B6 returned a TGFb1 IC50 (SMAD3 phosphorylation in CMVICs, AlphaLISA) of 0.597 µg/mL.

In turn, B7 had a TGFb1 IC50 (SMAD3 phosphorylation in CMVICs, AlphaLISA) of 4.59 µg/mL.

B8 showed a TGFb1 IC50 (SMAD3 phosphorylation in CMVICs, AlphaLISA) of 0.266 µg/mL.

B9 yielded a TGFb1 IC50 (SMAD3 phosphorylation in CMVICs, AlphaLISA) of 0.425 µg/mL.

Take B10: the TGFb1 IC50 (SMAD3 phosphorylation in CMVICs, AlphaLISA) was determined as 0.019 µg/mL.

Consider B11, for which the TGFb1 IC50 (SMAD3 phosphorylation in CMVICs, AlphaLISA) is 0.176 µg/mL.

Regarding B12, the TGFb1 IC50 (SMAD3 phosphorylation in CMVICs, AlphaLISA) came to 0.797 µg/mL.
